Assay results as given in the supplement of paper PMC3353916.
± gives the standard deviation of the averaged measurements.

Test system: Sindbis virus TE/5'2J-GFP
Assay: percent infected (GFP+ in RFP+ ISG-expressing cells); higher = more infection (less antiviral activity)
Experimental: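 Confirmatory testing of 87 ISGs. Triplicate wells of BHK/HA-Zeo (control) or BHK/NZAP-Zeo (ZAP) cells were transduced with lentiviruses co-expressing a human ISG plus TagRFP, then infected 48 h later with SINV TE/5'2J-GFP (moi 5). The % GFP+ cells among RFP+ cells was measured by flow cytometry at 8 h post infection. Fluc lentivirus served as control. Three independent experiments.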

[1] = experiment: confirmatory screen 1, BHK/HA-Zeo (control)
[2] = experiment: confirmatory screen 1, BHK/NZAP-Zeo (ZAP)
[3] = experiment: confirmatory screen 2, BHK/HA-Zeo (control)
[4] = experiment: confirmatory screen 2, BHK/NZAP-Zeo (ZAP)
[5] = experiment: confirmatory screen 3, BHK/HA-Zeo (control)
[6] = experiment: confirmatory screen 3, BHK/NZAP-Zeo (ZAP)
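Also: Interferon-defective BHK-21 derivatives, ZAP line overexpressing the rat ZAP N-terminal zinc finger domain fused to Zeocin resistance, GFP scored within live singlet TagRFP+ cells.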

Substance | percent infected [1] [%] | percent infected [2] [%] | percent infected [3] [%] | percent infected [4] [%] | percent infected [5] [%] | percent infected [6] [%]
ABTB2 | 94.03 ± 0.73 | 63.5 ± 5.5 | 94.02 ± 0.29 | 95.3 ± 0.29 | 93.9 ± 2 | 94.69 ± 0.42
BTN3A3 | 82.3 ± 4 | 57.5 ± 0.65 | 93.48 ± 0.51 | 95.55 ± 0.27 | 90.09 ± 0.83 | 89.4 ± 1.4
ISG20 | 95.82 ± 0.88 | 73.1 ± 2.4 | 96.88 ± 0.17 | 95.24 ± 0.15 | 87 ± 2.5 | 90.59 ± 0.73
MAATEISVLSEQFTKIKELELMPEKGLKEEEKDGVCREKDHRSPSELEAERTSGAFQDSVLEEEVELVLAPSEESEKYILTLQTVHFTSEAVELQDMSLLSIQQQEGVQVVVQQPGPGLLWLEEGPRQSLQQCVAISIQQELYSPQEMEVLQFHALEENVMVASEDSKLAVSLAETTGLIKLEEEQEKNQLLAERTKEQLFFVETMSGDERSDEIVLTVSNSNVEEQEDQPTAGQADAEKAKSTKNQRKTKGAKGTFHCDVCMFTSSRMSSFNRHMKTHTSEKPHLCHLCLKTFRTVTLLRNHVNTHTGTRPYKCNDCNMAFVTSGELVRHRRYKHTHEKPFKCSMCKYASVEASKLKRHVRSHTGERPFQCCQCSYASRDTYKLKRHMRTHSGEKPYECHICHTRFTQSGTMKIHILQKHGENVPKYQCPHCATIIARKSDLRVHMRNLHAYSAAELKCRYCSAVFHERYALIQHQKTHKNEKRFKCKHCSYACKQERHMTAHIRTHTGEKPFTCLSCNKCFRQKQLLNAHFRKYHDANFIPTVYKCSKCGKGFSRWINLHRHSEKCGSGEAKSAASGKGRRTRKRKQTILKEATKGQKEAAKGWKEAANGDEAAAEEASTTKGEQFPGEMFPVACRETTARVKEEVDEGVTCEMLLNTMDK [CTCFL] | 95.5 ± 1.9 | 68 ± 7.4 | 97.4 ± 0.23 | 95.98 ± 0.22 | 88.6 ± 1.2 | 86.4 ± 0.91
MAFF | 92.89 ± 0.73 | 70.1 ± 7.5 | 94.1 ± 0.95 | 93.98 ± 0.15 | 93.24 ± 0.65 | 91.23 ± 0.34
MAGIELERCQQQANEVTEIMRNNFGKVLERGVKLAELQQRSDQLLDMSSTFNKTTQNLAQKKCWENIRYRICVGLVVVGVLLIILIVLLVVFLPQSSDSSSAPRTQDAGIASGPGN [VAMP5] | 97.4 ± 0.76 | 78.6 ± 3.2 | 96.57 ± 0.3 | 94.74 ± 0.23 | 93.95 ± 0.59 | 93.52 ± 0.17
MAGPERWGPLLLCLLQAAPGRPRLAPPQNVTLLSQNFSVYLTWLPGLGNPQDVTYFVAYQSSPTRRRWREVEECAGTKELLCSMMCLKKQDLYNKFKGRVRTVSPSSKSPWVESEYLDYLFEVEPAPPVLVLTQTEEILSANATYQLPPCMPPLDLKYEVAFWKEGAGNKTLFPVTPHGQPVQITLQPAASEHHCLSARTIYTFSVPKYSKFSKPTCFLLEVPEANWAFLVLPSLLILLLVIAAGGVIWKTLMGNPWFQRAKMPRALDFSGHTHPVATFQPSRPESVNDLFLCPQKELTRGVRPTPRVRAPATQQTRWKKDLAEDEEEEDEEDTEDGVSFQPYIEPPSFLGQEHQAPGHSEAGGVDSGRPRAPLVPSEGSSAWDSSDRSWASTVDSSWDRAGSSGYLAEKGPGQGPGGDGHQESLPPPEFSKDSGFLEELPEDNLSSWATWGTLPPEPNLVPGGPPVSLQTLTFCWESSPEEEEEARESEIEDSDAGSWGAESTQRTEDRGRTLGHYMAR [IL28RA] | 11.9 ± 5.4 | 1.35 ± 0.22 | 33 ± 1.4 | 11.4 ± 0.84 | 21.4 ± 1.5 | 8.02 ± 0.72
MALAPERAAPRVLFGEWLLGEISSGCYEGLQWLDEARTCFRVPWKHFARKDLSEADARIFKAWAVARGRWPPSSRGGGPPPEAETAERAGWKTNFRCALRSTRRFVMLRDNSGDPADPHKVYALSRELCWREGPGTDQTEAEAPAAVPPPQGGPPGPFLAHTHAGLQAPGPLPAPAGDKGDLLLQAVQQSCLADHLLTASWGADPVPTKAPGEGQEGLPLTGACAGGPGLPAGELYGWAVETTPSPGPQPAALTTGEAAAPESPHQAEPYLSPSPSACTAVQEPSPGALDVTIMYKGRTVLQKVVGHPSCTFLYGPPDPAVRATDPQQVAFPSPAELPDQKQLRYTEELLRHVAPGLHLELRGPQLWARRMGKCKVYWEVGGPPGSASPSTPACLLPRNCDTPIFDFRVFFQELVEFRARQRRGSPRYTIYLGFGQDLSAGRPKEKSLVLVKLEPWLCRVHLEGTQREGVSSLDSSSLSLCLSSANSLYDDIECFLMELEQPA [IRF7] | 72 ± 5.6 | 7.66 ± 2.9 | 95.59 ± 0.13 | 92 ± 0.75 | 69.3 ± 3.4 | 32.8 ± 18
MALEIHMSDPMCLIENFNEQLKVNQEALEILSAITQPVVVVAIVGLYRTGKSYLMNKLAGKNKGFSVASTVQSHTKGIWIWCVPHPNWPNHTLVLLDTEGLGDVEKADNKNDIQIFALALLLSSTFVYNTVNKIDQGAIDLLHNVTELTDLLKARNSPDLDRVEDPADSASFFPDLVWTLRDFCLGLEIDGQLVTPDEYLENSLRPKQGSDQRVQNFNLPRLCIQKFFPKKKCFIFDLPAHQKKLAQLETLPDDELEPEFVQQVTEFCSYIFSHSMTKTLPGGIMVNGSRLKNLVLTYVNAISSGDLPCIENAVLALAQRENSAAVQKAIAHYDQQMGQKVQLPMETLQELLDLHRTSEREAIEVFMKNSFKDVDQSFQKELETLLDAKQNDICKRNLEASSDYCSALLKDIFGPLEEAVKQGIYSKPGGHNLFIQKTEELKAKYYREPRKGIQAEEVLQKYLKSKESVSHAILQTDQALTETEKKKKEAQVKAEAEKAEAQRLAAIQRQNEQMMQERERLHQEQVRQMEIAKQNWLAEQQKMQEQQMQEQAAQLSTTFQAQNRSLLSELQHAQRTVNNDDPCVLL [GBP5] | 95.4 ± 1.4 | 60 ± 5.7 | 97.28 ± 0.17 | 96.34 ± 0.093 | 87.3 ± 1.1 | 86.3 ± 0.93
MALLDVCGAPRGQRPESALPVAGSGRRSDPGHYSFSMRSPELALPRGMQPTEFFQSLGGDGERNVQIEMAHGTTTLAFKFQHGVIAAVDSRASAGSYISALRVNKVIEINPYLLGTMSGCAADCQYWERLLAKECRLYYLRNGERISVSAASKLLSNMMCQYRGMGLSMGSMICGWDKKGPGLYYVDEHGTRLSGNMFSTGSGNTYAYGVMDSGYRPNLSPEEAYDLGRRAIAYATHRDSYSGGVVNMYHMKEDGWVKVESTDVSDLLHQYREANQ [PSMB8] | 94.7 ± 1.4 | 64.8 ± 5.2 | 95.27 ± 0.2 | 94.97 ± 0.39 | 94.16 ± 0.23 | 94.18 ± 0.46
MALLLALSLLVLWTSPAPTLSGTNDAEDCCLSVTQKPIPGYIVRNFHYLLIKDGCRVPAVVFTTLRGRQLCAPPDQPWVERIIQRLQRTSAKMKRRSS [CCL19] | 95.7 ± 1.2 | 81.5 ± 1.8 | 95.5 ± 0.73 | 95.12 ± 0.1 | 92.83 ± 0.53 | 92.52 ± 0.47
MAPEINLPGPMSLIDNTKGQLVVNPEALKILSAITQPVVVVAIVGLYRTGKSYLMNKLAGKKNGFSLGSTVKSHTKGIWMWCVPHPKKPEHTLVLLDTEGLGDIEKGDNENDSWIFALAILLSSTFVYNSMGTINQQAMDQLHYVTELTDRIKANSSPGNNSVDDSADFVSFFPAFVWTLRDFTLELEVDGEPITADDYLELSLKLRKGTDKKSKSFNDPRLCIRKFFPKRKCFVFDWPAPKKYLAHLEQLKEEELNPDFIEQVAEFCSYILSHSNVKTLSGGIPVNGPRLESLVLTYVNAISSGDLPCMENAVLALAQIENSAAVEKAIAHYEQQMGQKVQLPTETLQELLDLHRDSEREAIEVFMKNSFKDVDQMFQRKLGAQLEARRDDFCKQNSKASSDCCMALLQDIFGPLEEDVKQGTFSKPGGYRLFTQKLQELKNKYYQVPRKGIQAKEVLKKYLESKEDVADALLQTDQSLSEKEKAIEVERIKAESAEAAKKMLEEIQKKNEEMMEQKEKSYQEHVKQLTEKMERDRAQLMAEQEKTLALKLQEQERLLKEGFENESKRLQKDIWDIQMRSKSLEPICNIL [GBP2] | 96.3 ± 0.94 | 80.8 ± 0.62 | 94.84 ± 0.44 | 95.94 ± 0.23 | 93.28 ± 0.57 | 94.23 ± 0.41
MAQASPPRPERVLGASSPEARPAQEALLLPTGVFQVAEKMEKRTCALCPKDVEYNVLYFAQSENIAAHENCLLYSSGLVECEDQDPLNPDRSFDVESVKKEIQRGRKLKCKFCHKRGATVGCDLKNCNKNYHFFCAKKDDAVPQSDGVRGIYKLLCQQHAQFPIIAQSAKFSGVKRKRGRKKPLSGNHVQPPETMKCNTFIRQVKEEHGRHTDATVKVPFLKKCKEAGLLNYLLEEILDKVHSIPEKLMDETTSESDYEEIGSALFDCRLFEDTFVNFQAAIEKKIHASQQRWQQLKEEIELLQDLKQTLCSFQENRDLMSSSTSISSLSY [PHF11] | 76.3 ± 5.1 | 50.3 ± 2.9 | 91.99 ± 0.75 | 93.69 ± 0.2 | 89.11 ± 0.58 | 89.89 ± 0.28
MASGRARCTRKLRNWVVEQVESGQFPGVCWDDTAKTMFRIPWKHAGKQDFREDQDAAFFKAWAIFKGKYKEGDTGGPAVWKTRLRCALNKSSEFKEVPERGRMDVAEPYKVYQLLPPGIVSGQPGTQKVPSKRQHSSVSSERKEEEDAMQNCTLSPSVLQDSLNNEEEGASGGAVHSDIGSSSSSSSPEPQEVTDTTEAPFQGDQRSLEFLLPPEPDYSLLLTFIYNGRVVGEAQVQSLDCRLVAEPSGSESSMEQVLFPKPGPLEPTQRLLSQLERGILVASNPRGLFVQRLCPIPISWNAPQAPPGPGPHLLPSNECVELFRTAYFCRDLVRYFQGLGPPPKFQVTLNFWEESHGSSHTPQNLITVKMEQAFARYLLEQTPEQQAAILSLV [IRF9] | 95.7 ± 1.1 | 77.9 ± 2.2 | 95.77 ± 0.51 | 95.5 ± 0.37 | 94.29 ± 0.52 | 92.97 ± 0.35
MASVAVDPQPSVVTRVVNLPLVSSTYDLMSSAYLSTKDQYPYLKSVCEMAENGVKTITSVAMTSALPIIQKLEPQIAVANTYACKGLDRIEERLPILNQPSTQIVANAKGAVTGAKDAVTTTVTGAKDSVASTITGVMDKTKGAVTGSVEKTKSVVSGSINTVLGSRMMQLVSSGVENALTKSELLVEQYLPLTEEELEKEAKKVEGFDLVQKPSYYVRLGSLSTKLHSRAYQQALSRVKEAKQKSQQTISQLHSTVHLIEFARKNVYSANQKIQDAQDKLYLSWVEWKRSIGYDDTDESHCAEHIESRTLAIARNLTQQLQTTCHTLLSNIQGVPQNIQDQAKHMGVMAGDIYSVFRNAASFKEVSDSLLTSSKGQLQKMKESLDDVMDYLVNNTPLNWLVGPFYPQLTESQNAQDQGAEMDKSSQETQRSEHKTH [ADFP] | 91.4 ± 2 | 68 ± 2.8 | 96.84 ± 0.14 | 95.665 ± 0.052 | 88.3 ± 0.9 | 89.1 ± 1.9
